Experimental data as given in article PMC12724371 (Journal of Virology, 2025).

How the values were obtained:
Assay in all cases: BLI
Conditions in all cases: both partners purified
[1] = target: SARS-CoV full-length spike protein (SARS-CoV, strain  (entry …, UniProt P59594))
[2] = target: RatG13 full-length spike protein (Bat coronavirus RaTG13, UniProt A0ABF7PLN6)
[3] = target: T1, SARS-CoV-2 spike S2 subunit (SARS-CoV-2, Wuhan-Hu-1 reference, UniProt P0DTC2)
T1 construct: source: bought: Sino Biological

[4] = target: T2, SARS-CoV spike S2 subunit (SARS-CoV, strain  (entry …, UniProt P59594))
T2 construct: source: bought: Sino Biological

MERS spike S2 subunit = target: T3, MERS spike S2 subunit (MERS-CoV, strain  (entry: …, UniProt K9N5Q8))
T3 construct: source: bought: Sino Biological
T3 sequence (K9N5Q8 whole entry, looked up): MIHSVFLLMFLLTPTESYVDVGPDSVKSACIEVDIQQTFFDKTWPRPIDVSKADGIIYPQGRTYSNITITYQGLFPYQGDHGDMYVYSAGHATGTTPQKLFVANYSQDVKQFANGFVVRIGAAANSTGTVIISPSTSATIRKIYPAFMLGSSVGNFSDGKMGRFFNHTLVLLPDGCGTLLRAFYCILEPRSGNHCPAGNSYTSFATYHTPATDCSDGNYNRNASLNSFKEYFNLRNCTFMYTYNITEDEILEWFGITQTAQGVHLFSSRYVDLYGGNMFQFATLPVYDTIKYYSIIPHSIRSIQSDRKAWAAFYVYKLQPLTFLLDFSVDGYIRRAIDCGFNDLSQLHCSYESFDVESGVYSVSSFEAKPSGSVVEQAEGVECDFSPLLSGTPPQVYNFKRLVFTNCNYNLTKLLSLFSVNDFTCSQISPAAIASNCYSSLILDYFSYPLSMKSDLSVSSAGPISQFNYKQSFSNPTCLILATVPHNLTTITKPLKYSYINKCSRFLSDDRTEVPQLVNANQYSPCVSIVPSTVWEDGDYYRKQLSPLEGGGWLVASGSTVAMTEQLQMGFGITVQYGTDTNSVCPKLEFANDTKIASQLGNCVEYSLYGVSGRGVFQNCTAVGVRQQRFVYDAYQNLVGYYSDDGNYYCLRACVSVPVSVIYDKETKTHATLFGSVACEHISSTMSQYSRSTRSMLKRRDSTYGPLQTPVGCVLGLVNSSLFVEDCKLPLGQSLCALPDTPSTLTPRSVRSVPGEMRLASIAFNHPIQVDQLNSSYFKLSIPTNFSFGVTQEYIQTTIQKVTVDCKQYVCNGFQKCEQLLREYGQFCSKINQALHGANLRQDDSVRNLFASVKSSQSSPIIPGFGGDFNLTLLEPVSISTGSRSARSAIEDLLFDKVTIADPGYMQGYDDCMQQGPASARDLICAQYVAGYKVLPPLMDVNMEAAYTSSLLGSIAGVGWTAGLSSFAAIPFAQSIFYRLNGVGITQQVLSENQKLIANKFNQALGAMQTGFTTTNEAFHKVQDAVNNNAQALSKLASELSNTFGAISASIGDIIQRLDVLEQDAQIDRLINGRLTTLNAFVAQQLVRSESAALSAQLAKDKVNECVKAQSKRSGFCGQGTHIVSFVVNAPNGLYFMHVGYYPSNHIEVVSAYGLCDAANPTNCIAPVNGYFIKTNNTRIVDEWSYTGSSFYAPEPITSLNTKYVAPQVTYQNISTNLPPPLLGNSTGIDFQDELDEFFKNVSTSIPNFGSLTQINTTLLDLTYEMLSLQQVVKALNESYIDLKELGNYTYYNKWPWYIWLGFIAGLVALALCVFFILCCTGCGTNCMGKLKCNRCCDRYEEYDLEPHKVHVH

[5] = target: T4, HKU-1 full-length spike protein (HCoV-HKU1, UniProt Q0ZME7)
T4 construct: also called HKU1 SP; HCoV-HKU1 full-length SP; source: bought: Sino Biological
T4 sequence (Q0ZME7 13-1351): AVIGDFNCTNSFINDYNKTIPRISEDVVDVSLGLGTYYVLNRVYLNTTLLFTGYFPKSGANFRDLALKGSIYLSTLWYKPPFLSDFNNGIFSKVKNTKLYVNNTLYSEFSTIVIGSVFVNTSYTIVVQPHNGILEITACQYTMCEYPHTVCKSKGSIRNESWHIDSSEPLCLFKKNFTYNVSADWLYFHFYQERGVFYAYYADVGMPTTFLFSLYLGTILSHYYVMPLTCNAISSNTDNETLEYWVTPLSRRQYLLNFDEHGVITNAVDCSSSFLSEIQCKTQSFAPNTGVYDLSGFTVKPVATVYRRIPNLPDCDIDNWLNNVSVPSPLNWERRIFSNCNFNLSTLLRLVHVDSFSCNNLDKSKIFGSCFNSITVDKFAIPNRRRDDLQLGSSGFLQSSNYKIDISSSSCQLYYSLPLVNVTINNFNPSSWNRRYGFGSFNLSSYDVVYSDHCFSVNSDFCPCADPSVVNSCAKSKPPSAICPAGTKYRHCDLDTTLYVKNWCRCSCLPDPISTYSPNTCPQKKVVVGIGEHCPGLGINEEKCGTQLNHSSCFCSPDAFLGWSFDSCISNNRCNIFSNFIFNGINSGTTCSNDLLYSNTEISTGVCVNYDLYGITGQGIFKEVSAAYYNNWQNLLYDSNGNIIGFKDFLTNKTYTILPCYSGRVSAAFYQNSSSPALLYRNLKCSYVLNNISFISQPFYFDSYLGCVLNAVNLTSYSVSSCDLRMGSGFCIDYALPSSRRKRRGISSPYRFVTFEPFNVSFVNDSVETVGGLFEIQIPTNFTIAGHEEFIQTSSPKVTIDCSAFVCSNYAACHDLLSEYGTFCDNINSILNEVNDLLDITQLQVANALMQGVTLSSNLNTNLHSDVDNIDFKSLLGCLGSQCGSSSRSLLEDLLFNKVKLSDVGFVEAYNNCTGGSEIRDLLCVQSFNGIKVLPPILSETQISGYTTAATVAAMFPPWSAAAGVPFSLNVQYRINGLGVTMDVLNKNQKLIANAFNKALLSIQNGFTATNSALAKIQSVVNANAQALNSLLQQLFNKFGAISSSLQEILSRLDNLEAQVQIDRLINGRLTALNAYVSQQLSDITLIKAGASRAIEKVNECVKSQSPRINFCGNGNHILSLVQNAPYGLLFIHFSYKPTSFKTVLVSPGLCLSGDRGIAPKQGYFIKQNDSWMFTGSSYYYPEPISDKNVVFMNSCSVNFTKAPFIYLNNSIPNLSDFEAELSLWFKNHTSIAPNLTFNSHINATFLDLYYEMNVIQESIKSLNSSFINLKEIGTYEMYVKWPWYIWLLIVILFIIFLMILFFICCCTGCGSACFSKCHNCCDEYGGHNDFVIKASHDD

[6] = target: MERS full-length spike protein (MERS-CoV, strain  (entry: …, UniProt K9N5Q8))
[7] = target: T5, OC-43 full-length spike protein (HCoV-OC43, UniProt P36334)
T5 construct: source: bought: Sino Biological
T5 sequence (P36334 14-1353): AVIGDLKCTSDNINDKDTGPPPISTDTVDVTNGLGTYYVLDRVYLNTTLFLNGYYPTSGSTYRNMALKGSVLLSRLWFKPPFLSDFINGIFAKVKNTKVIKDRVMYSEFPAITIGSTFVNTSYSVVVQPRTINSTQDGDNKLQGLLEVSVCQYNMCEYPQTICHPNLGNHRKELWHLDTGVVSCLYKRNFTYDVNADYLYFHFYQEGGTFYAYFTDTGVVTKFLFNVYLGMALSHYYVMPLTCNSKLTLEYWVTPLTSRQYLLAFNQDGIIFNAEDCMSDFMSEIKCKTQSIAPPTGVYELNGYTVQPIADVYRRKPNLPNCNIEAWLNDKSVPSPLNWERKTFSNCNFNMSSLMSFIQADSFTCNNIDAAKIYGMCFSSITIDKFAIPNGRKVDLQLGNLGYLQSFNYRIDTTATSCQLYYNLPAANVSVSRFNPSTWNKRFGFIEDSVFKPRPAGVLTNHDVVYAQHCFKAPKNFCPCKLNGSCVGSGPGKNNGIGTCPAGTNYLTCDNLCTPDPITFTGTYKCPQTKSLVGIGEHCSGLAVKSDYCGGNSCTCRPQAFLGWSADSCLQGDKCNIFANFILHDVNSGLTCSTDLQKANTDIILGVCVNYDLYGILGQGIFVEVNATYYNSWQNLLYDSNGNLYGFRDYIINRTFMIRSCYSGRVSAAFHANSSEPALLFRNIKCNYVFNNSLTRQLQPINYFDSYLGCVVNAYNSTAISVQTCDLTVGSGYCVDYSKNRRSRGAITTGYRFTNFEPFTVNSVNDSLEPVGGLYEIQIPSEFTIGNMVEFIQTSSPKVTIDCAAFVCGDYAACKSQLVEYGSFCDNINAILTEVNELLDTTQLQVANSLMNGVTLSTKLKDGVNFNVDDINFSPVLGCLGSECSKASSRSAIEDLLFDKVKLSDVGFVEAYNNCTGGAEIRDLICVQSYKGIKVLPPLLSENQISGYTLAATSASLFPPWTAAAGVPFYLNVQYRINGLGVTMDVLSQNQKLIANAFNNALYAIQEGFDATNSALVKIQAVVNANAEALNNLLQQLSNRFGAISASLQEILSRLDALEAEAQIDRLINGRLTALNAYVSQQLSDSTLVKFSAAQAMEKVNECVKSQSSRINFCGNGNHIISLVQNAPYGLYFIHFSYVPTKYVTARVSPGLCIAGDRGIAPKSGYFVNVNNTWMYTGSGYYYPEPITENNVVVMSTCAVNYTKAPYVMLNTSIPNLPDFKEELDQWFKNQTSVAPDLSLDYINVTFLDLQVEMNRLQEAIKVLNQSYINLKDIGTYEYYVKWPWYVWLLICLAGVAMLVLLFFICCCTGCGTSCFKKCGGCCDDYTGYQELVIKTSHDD

Measured: binding result

B1: mAb 1871 IgG1 (wild-type human IgG1 Fc) (antibody, V domains shown)
VH: EVQLVESGGGLVKPGGSLRLSCVASGFSFSIYSMNWVRQAPGKGLEWVSYISSSSSYKYYADSVKGRFSVSRDNAKNSLYLQLNGLRAEDTAVYYCARDGYCPKGVCTYYGMDVWGQGTTVTVSA
VL: EIVMTQSPATLSVSPGERVTLSCRASQSVRSRLAWFQQKPGQAPRLLIYDASIRATGIPARFSGSGSGTEFTLIISSLQSEDFAVYYCQQYDNWPPAYTFGQGTKLEIK
notes: also called ADPT01871; source: HEK-293F, transiently transfected, purified (protein A, SEC Superdex200)
binds: [1] | [2] | [3] | [4] | MERS spike S2 subunit | [5] | [6] | [7]
